# In US7572589B2, “Diagnosis and treatment of infectious diseases through indel-differentiated proteins” (priority 2001, dated 2009):
# B1: macrophage EF-1α: EF-1α purified to near homogeneity from murine macrophages (RAW 264.7) (protein)
# chain: GKEKTHINIVVIGHVDSGKSTTTGHLIYKCGGIDKRTIEKFEKEAAEMGKGSFKYAWVLDKLKAERERGITIDISLWKFETSKYYVTIIDAPGHRDFIKNMITGTSQADCAVLIVAAGVGEFEAGISKNGQTREHALLAYTLGVKQLIVGVNKMDSTEPPYSQKRYEEIVKEVSTYIKKIGYNPDTVAFVPISGWNGDNMLEPSANMPWFKGWKVTRKDGSASGTTLLEALDCILPPTRPTDKPLRLPLQDVYKIGGIGTVPVGRVETGVLKPGMVVTFAPVNVTTEVKSVEMHHEALSEALPGDNVGFNVKNVSVKDVRRGNVAGDSKNDPPMEAAGFTAQVIILNHPGQISAGYAPVLDCHTAHIACKFAELKEKIDRRSGKKLEDGPKFLKSGDAAIVDMVPGKPMCVESFSDYPPLGRFAVRDMRQTVAVGVIKAVDKKAAGAGKVTKSAQKAQKAK
# Key:
# [1] = test system: Macrophages infected with L. donovani; conditions: cells incubated with inhibitor prior to infection; cited from earlier work
# [2] = target: T1, SHP-1 (Homo sapiens, UniProt P29350); conditions: cited from earlier work
# T1 construct: made in house
# [3] = target: T2, SHP-1 (Mus musculus, UniProt P29351); test: SHP-1 phosphatase activity (pNPP) after Profect-1 delivery of purified EF-1α into macrophages; format: cell-based, murine; conditions: purified protein introduced into macrophages
# T2 construct: complexes for delivery to macrophages (approximately 2×10^6); endogenous in cells; host or cells: macrophages (RAW 264.7 named in the materials)
# Procedure: Approximately 1 μg of purified EF-1α from leishmania or macrophages or an equivalent amount of BSA were incubated separately with Profect 1™ reagent (Targety Systems, Santee, Calif., USA) in serum free media to prepare protein-Profect-1™ complexes for delivery to macrophages (approximately 2×10^6) according to the manufacturer's instructions. After 2-3 hr of incubation, cells were lysed in buffer C (50 mM Tris [pH 7.5], 1% Triton X-100™ and 0.15M NaCl) containing a cocktail of protease inhibitors for 20 min on ice and incubated with anti-SHP-1 for 2 h end-over-end at 4° C. Immune complexes were recovered using protein A-sepharose and after extensive washing with buffer C, immune complexes were assayed for phosphatase activity using pNPP as a substrate.
# [4] = target: T3, calmodulin (Homo sapiens, UniProt P0DP23); test: Binding of purified EF-1α to calmodulin-agarose; conditions: purified proteins
# T3 construct: purchased Sigma Chemical Co. (St. Louis, Mo.)
# Procedure: (§1) For binding assays, purified EF-1α from either leishmania or macrophages was incubated with 25 μl (packed volume) of glutathione-agarose beads containing equal amounts of GST-SHP-1. Binding was accomplished by mixing in 100 μl of binding buffer (50 mM HEPES [pH 7.5], 0.15 M NaCl, 1 mM EDTA, 1 mM DTT, 0.01% Triton X-100™ and 1% glycerol) for 2 h at 4° C. The beads were collected by centrifugation and washed four times with binding buffer. Bound EF-1α was eluted by boiling beads in Laemmli sample buffer, separated on SDS-PAGE followed by immunoblotting using anti-EF-1α. Binding of EF-1α to calmodulin-agarose was performed essentially as described above for GST-SHP-1 except that binding buffer contained 0.2 mM CaCl2 instead of EDTA. Also, after incubation, non-bound proteins were removed and affinity beads were assayed for SHP-1 phosphatase activity using pNPP as a substrate. Relative phosphatase activity was assessed by measuring changes in absorbance at 405 nm.
# [5] = target: T1, SHP-1; test: Binding assay of purified EF-1α with GST-SHP-1 glutathione beads, immunoblot; conditions: purified proteins, glutathione-sepharose beads
# Procedure: as §1
# T1 sequence (P29350 whole entry): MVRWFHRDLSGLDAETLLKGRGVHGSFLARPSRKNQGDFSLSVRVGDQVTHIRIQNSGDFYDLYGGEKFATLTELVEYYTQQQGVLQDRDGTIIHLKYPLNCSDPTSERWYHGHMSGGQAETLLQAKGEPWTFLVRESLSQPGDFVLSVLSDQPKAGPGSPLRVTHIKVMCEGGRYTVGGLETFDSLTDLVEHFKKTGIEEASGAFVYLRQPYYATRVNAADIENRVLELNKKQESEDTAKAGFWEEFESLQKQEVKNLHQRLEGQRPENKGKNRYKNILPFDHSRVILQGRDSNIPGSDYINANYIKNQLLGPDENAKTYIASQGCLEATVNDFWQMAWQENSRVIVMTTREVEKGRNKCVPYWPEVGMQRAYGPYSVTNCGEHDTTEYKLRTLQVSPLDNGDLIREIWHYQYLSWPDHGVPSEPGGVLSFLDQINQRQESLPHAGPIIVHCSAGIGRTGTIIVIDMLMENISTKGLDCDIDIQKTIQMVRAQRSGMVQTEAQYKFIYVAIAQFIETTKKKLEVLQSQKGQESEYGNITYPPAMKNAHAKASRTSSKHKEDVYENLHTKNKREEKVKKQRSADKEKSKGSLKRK
# T2 sequence (P29351 whole entry): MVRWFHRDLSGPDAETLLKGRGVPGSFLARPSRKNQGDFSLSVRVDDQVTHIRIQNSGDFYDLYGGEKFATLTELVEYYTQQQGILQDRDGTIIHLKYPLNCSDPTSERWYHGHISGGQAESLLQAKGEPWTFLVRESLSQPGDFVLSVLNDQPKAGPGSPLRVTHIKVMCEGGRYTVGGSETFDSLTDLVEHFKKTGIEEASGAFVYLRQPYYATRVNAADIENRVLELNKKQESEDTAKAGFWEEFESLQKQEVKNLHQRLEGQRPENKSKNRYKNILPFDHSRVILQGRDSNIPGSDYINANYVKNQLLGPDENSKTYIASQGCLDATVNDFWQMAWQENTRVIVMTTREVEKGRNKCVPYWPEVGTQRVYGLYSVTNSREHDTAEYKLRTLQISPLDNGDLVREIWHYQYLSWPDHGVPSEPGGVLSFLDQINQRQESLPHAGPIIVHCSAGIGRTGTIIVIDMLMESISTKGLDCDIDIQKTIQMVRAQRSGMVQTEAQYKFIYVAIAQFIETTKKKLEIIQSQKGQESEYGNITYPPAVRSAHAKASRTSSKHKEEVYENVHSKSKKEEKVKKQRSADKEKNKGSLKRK
molecule,measurement,setting,value
sodium orthovandate,phenotype of impaired cell signaling and cell deactivation,[1],reversed
O.O.O.O.O.O.O.O.O.O=C([O-])[C@@H]1[O][Sb]2([O-])([O][Sb]34([OH])[O][C@H]([C@H](O)CO)[C@H]([O]3)[C@H](C(=O)[O-])[O]4)[O][C@H]([C@H](O)CO)[C@@H]1[O]2.[Na+].[Na+].[Na+] [sodium stibogluconate],inhibition of SHP-1,[2],inhibitor of SHP-1
B1,activation of SHP-1,[3],activation of SHP-1 was not observed
same,binding to calmodulin,[4],bound directly and with similar affinities
same,binding to GST-SHP-1,[5],comparatively little binding
